Measured values published in US20240270821A1, “GIP/GLP1/GCG TRI-RECEPTOR AGONISTS AND USES THEREOF” (priority 2023, published 2024).

B1: Example 1071 (peptide)
chain: YXQGTFTSDXSQXLDXKAQXAFIEXLIEGGPSSGAPPPSGSEEE
modifications: acylated Lys e-γGlu-C18 diacid; non-natural residues; C-terminal amide; synthetic construct; SITE 2: note = 2-Aminoisobutyric Acid; SITE 10: note = 3-(4-Pyridyl)-L-alanine; SITE 13: note = alpha-methyl-leucine; SITE 16: note = L-ornithine; SITE 17: note = Lysine is chemically modified through conjugation of the epsilon-amino group of the Lysine side chain with D-Glutami
B2: Example 1076 (peptide)
chain: YXQGTFTSDXSQXLDXKAQXAFIQXLIEGGPSSGAPPPSGSEEE
modifications: non-natural residues (Aib, 4Pal, Orn, Me4Pal, αMeY); lipidated K; amide; synthetic construct; SITE 2: note = 2-Aminoisobutyric Acid; SITE 10: note = 3-(4-Pyridyl)-L-alanine; SITE 13: note = alpha-methyl-leucine; SITE 16: note = L-ornithine; SITE 17: note = Lysine is chemically modified through conjugation of the epsilon-amino group of the Lysine side chain with D-Glutami
B3: Example 1084 (peptide)
chain: YXQGTFTSDXSQXLDXKAQXQFIEXLLAGGPSSGAPPPSGSEEE
modifications: not fully specified; Lys acylated γGlu-C18 diacid; non-natural residues; C-terminal amide; synthetic construct; SITE 2: note = 2-Aminoisobutyric Acid; SITE 10: note = 3-(4-Pyridyl)-L-alanine; SITE 13: note = alpha-methyl-leucine; SITE 16: note = L-ornithine; SITE 17: note = Lysine is chemically modified through conjugation of the epsilon-amino group of the Lysine side chain with D-Glutami
B4: Example 1073 (peptide)
chain: YXQGTFTSDXSQXLDXKAQXAFIQXLIEGGPSSGAPPPSGSEEE
modifications: non-natural residues, acylated Lys (γGlu-C18 diacid), C-terminal amide; synthetic construct; SITE 2: note = 2-Aminoisobutyric Acid; SITE 10: note = 3-(4-Pyridyl)-L-alanine; SITE 13: note = alpha-methyl-leucine; SITE 16: note = L-ornithine; SITE 17: note = Lysine is chemically modified through conjugation of the epsilon-amino group of the Lysine side chain with D-Glutami
B5: Example 1081 (peptide)
chain: YXQGTFTSDXSQXLDXKAQXQFIEXLIAGGPSSGAPPPSGSEEE
modifications: Aib, 4Pal, Orn, Me4Pal, alpha-methyl-Tyr, lipidated Lys, amide; synthetic construct; SITE 2: note = 2-Aminoisobutyric Acid; SITE 10: note = 3-(4-Pyridyl)-L-alanine; SITE 13: note = alpha-methyl-leucine; SITE 16: note = L-ornithine; SITE 17: note = Lysine is chemically modified through conjugation of the epsilon-amino group of the Lysine side chain with D-Glutami
B6: Example 1082 (peptide)
chain: YXQGTFTSDXSQXLDXKAQXAFIEXLLAGGPSSGAPPPSGSEEE
modifications: Lys acylated γGlu-C18 diacid; non-natural residues; C-amide; synthetic construct; SITE 2: note = 2-Aminoisobutyric Acid; SITE 10: note = 3-(4-Pyridyl)-L-alanine; SITE 13: note = alpha-methyl-leucine; SITE 16: note = L-ornithine; SITE 17: note = Lysine is chemically modified through conjugation of the epsilon-amino group of the Lysine side chain with D-Glutami
B7: Example 1083 (peptide)
chain: YXQGTFTSDXSQXLDXKAQXAFIQXLLEGGPSSGAPPPSGSEEE
modifications: Aib, 4Pal, Orn, Me4Pal, αMeY; acylated lysine; amide; synthetic construct; SITE 2: note = 2-Aminoisobutyric Acid; SITE 10: note = 3-(4-Pyridyl)-L-alanine; SITE 13: note = alpha-methyl-leucine; SITE 16: note = L-ornithine; SITE 17: note = Lysine is chemically modified through conjugation of the epsilon-amino group of the Lysine side chain with D-Glutami
B8: Example 1077 (peptide)
chain: YXQGTFTSDXSQXLDXKAQXAFIQXLIEGGPSSGAPPPSGSEEE
modifications: Glu-γGlu-C18 diacid on Lys; non-natural residues; amide; synthetic construct; SITE 2: note = 2-Aminoisobutyric Acid; SITE 10: note = 3-(4-Pyridyl)-L-alanine; SITE 13: note = alpha-methyl-leucine; SITE 16: note = L-ornithine; SITE 17: note = Lysine is chemically modified through conjugation of the epsilon-amino group of the Lysine side chain with (Glu)-(ga)
B9: Example 1070 (peptide)
chain: YXQGTFTSDXSQXLDXKAQXAFIEXLIEGGPSSGAPPPSGSEE
modifications: Aib, 4Pal, αMeL, Orn, Me4Pal, αMeY; acylated Lys; C-terminal amide; synthetic construct; SITE 2: note = 2-Aminoisobutyric Acid; SITE 10: note = 3-(4-Pyridyl)-L-alanine; SITE 13: note = alpha-methyl-leucine; SITE 16: note = L-ornithine; SITE 17: note = Lysine is chemically modified through conjugation of the epsilon-amino group of the Lysine side chain with D-Glutami
B10: Example 1097 (peptide)
chain: YXQGTFTSDXSQXLDXKAQXAFIEXLIEXGPSSGEPPPSGSEE
modifications: non-natural residues; acylated Lys; C-terminal amide; synthetic construct; SITE 2: note = 2-Aminoisobutyric Acid; SITE 10: note = 3-(4-Pyridyl)-L-alanine; SITE 13: note = alpha-methyl-leucine; SITE 16: note = L-ornithine; SITE 17: note = Lysine is chemically modified through conjugation of the epsilon-amino group of the Lysine side chain with (2-[2-(2-
B11: Example 1090 (peptide)
chain: YXQGTFTSDXSQXLDKKAQXAFIEYLIAGGPSSGAPPPSGEEE
modifications: acylated Lys, C-terminal amide, non-natural residues; synthetic construct; SITE 2: note = 2-Aminoisobutyric Acid; SITE 10: note = 3-(4-Pyridyl)-L-alanine; SITE 13: note = alpha-methyl-leucine; SITE 17: note = Lysine is chemically modified through conjugation of the epsilon-amino group of the Lysine side chain with (Glu)2-(gamma-Glu)-CO-(CH2)16-CO2H; SI
B12: Example 1089 (peptide)
chain: YXQGTFTSDXSQXLDKKAQXAFIEYLIAGGPSSGAPPPSGEEE
modifications: non-natural residues; acylated Lys; C-terminal amide; synthetic construct; SITE 2: note = 2-Aminoisobutyric Acid; SITE 10: note = 3-(4-Pyridyl)-L-alanine; SITE 13: note = alpha-methyl-leucine; SITE 17: note = Lysine is chemically modified through conjugation of the epsilon-amino group of the Lysine side chain with (Glu)-(gamma-Glu)-CO-(CH2)16-CO2H; SIT
B13: Example 1092 (peptide)
chain: YXQGTFTSDXSQXLDXKAQXAFIEYLIAXGPSSGEPPPSGSEE
modifications: non-natural residues, acylated Lys ((γGlu)2-C18 diacid), C-terminal amide; synthetic construct; SITE 2: note = 2-Aminoisobutyric Acid; SITE 10: note = 3-(4-Pyridyl)-L-alanine; SITE 13: note = alpha-methyl-leucine; SITE 16: note = L-ornithine; SITE 17: note = Lysine is chemically modified through conjugation of the epsilon-amino group of the Lysine side chain with (gamma-Gl)

Tests used:
Assay in all cases: cell-based or functional assay
[1] = target: hGLP-1R (Homo sapiens, UniProt P43220)
Chain of hGLP-1R (P43220 24-463): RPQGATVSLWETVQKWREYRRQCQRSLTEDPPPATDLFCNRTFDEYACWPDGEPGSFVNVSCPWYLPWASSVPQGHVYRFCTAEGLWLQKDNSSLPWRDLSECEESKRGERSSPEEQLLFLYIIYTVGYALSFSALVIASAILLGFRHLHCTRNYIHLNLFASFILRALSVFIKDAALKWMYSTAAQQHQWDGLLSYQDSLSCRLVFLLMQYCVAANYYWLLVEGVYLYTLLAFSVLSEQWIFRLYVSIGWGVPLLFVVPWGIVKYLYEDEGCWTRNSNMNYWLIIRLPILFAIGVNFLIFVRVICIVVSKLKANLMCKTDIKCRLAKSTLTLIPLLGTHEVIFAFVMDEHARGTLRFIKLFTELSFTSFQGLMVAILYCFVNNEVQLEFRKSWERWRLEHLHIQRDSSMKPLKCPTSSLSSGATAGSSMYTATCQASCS

[2] = target: T1, human GIP receptor (human) (UniProt P48546)
T1 sequence (looked up): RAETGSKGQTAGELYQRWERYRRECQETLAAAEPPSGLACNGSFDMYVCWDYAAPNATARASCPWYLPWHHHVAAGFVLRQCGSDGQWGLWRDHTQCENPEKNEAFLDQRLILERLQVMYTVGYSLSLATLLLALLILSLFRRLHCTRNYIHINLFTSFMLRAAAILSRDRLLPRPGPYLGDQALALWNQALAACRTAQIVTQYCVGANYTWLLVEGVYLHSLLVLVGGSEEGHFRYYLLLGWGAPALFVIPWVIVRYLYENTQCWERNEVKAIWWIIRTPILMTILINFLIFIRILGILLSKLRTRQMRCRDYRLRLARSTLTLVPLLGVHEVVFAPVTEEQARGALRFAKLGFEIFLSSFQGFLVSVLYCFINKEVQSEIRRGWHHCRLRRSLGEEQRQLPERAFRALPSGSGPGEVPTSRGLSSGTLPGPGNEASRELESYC

[3] = target: human glucagon receptor (human) (UniProt P47871)
Chain of human glucagon receptor (human) (P47871 26-477): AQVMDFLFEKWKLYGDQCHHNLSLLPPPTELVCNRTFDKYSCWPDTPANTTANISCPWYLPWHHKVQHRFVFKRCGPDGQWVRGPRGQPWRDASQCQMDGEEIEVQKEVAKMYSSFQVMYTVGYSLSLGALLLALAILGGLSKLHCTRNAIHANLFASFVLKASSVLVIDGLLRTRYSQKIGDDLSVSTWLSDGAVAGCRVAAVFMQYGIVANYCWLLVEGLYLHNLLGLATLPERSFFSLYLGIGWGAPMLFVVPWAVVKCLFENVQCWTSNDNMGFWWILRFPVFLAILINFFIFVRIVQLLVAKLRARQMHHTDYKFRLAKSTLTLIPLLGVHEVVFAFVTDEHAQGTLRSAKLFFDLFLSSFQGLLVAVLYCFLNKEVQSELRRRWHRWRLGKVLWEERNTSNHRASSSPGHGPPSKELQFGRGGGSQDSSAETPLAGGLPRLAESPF

| Binder | Relative cAMP EC50 [1] | cAMP Rel EC50 (1% HSA) [1] | Relative cAMP EC50 [2] | cAMP Rel EC50 (1% HSA) [2] | Relative cAMP EC50 [3] | cAMP Rel EC50 (1% HSA) [3] |
| --- | --- | --- | --- | --- | --- | --- |
| B1 | 2.06 nM | 425 nM | 0.261 nM | 40.2 nM | 23.5 nM | 2990 nM |
| B2 | 1.47 nM | 187 nM | 0.174 nM | 20.2 nM | 59 nM | 1650 nM |
| B3 | 10.3 nM | 761 nM | 0.0975 nM | 17.2 nM | 11.5 nM | 1390 nM |
| B4 | 1.09 nM | 114 nM | 0.201 nM | 15.7 nM | 12.3 nM | 1490 nM |
| B5 | 1.29 nM | 151 nM | 0.105 nM | 8.44 nM | 19.7 nM | 2130 nM |
| B6 | 4.13 nM | 677 nM | 0.099 nM | 12.3 nM | 12.3 nM | 1530 nM |
| B7 | 7.76 nM | 547 nM | 0.328 nM | 20.5 nM | 15 nM | 1030 nM |
| B8 | 1.48 nM | 408 nM | 0.23 nM | 27.8 nM | 18.8 nM | 3160 nM |
| B9 | 1.54 nM | 321 nM | 0.167 nM | 27.3 nM | 20.2 nM | 1940 nM |
| B10 | 1.59 nM | 141 nM | 0.136 nM | 27.3 nM | 6.16 nM | 752 nM |
| B11 | 5.44 nM | 619 nM | 0.272 nM | 27.3 nM | 15.6 nM | 2010 nM |
| B12 | 2.96 nM | 449 nM | 0.213 nM | 34.6 nM | 14 nM | 2580 nM |
| B13 | 1.33 nM | 230 nM | 0.0648 nM | 7.83 nM | 3.45 nM | 506 nM |
